Test results as given in paper PMC7104187.

Target: T1, SauCas9 (Staphylococcus aureus, UniProt J7RUA5 1-1053)
T1 sequence: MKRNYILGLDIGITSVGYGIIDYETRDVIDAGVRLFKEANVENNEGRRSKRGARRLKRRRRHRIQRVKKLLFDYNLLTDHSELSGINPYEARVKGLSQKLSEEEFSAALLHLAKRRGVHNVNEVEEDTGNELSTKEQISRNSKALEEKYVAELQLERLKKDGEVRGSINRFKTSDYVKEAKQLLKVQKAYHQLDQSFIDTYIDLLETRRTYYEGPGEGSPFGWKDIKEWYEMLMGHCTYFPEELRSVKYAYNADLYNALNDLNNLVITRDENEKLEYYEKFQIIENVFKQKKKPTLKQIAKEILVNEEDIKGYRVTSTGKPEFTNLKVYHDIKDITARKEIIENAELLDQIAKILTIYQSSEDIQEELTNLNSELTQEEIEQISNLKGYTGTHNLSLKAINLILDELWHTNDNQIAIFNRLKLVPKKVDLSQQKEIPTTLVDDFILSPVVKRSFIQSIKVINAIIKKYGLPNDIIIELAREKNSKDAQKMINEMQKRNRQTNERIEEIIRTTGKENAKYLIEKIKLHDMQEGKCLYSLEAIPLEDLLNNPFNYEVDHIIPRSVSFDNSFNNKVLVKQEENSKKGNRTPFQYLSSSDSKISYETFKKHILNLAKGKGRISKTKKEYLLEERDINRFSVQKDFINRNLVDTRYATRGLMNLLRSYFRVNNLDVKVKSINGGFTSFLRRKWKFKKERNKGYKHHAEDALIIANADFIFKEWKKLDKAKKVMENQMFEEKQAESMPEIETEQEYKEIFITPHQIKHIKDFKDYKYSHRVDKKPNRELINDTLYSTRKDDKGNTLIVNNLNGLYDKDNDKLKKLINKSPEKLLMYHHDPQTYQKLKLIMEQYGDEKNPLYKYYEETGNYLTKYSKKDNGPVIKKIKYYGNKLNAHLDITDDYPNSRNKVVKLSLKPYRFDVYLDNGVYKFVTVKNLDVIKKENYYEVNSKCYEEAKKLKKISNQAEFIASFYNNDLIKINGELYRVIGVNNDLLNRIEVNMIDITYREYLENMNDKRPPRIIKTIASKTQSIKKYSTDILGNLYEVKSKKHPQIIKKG
Assay: EMSA

B1: EGFP sgRNA + target dsDNA (T) (mixed)
RNA: GCAAGGGCGAGGAGCUGUUCACGUUUUAGUACUCUGGAAACAGAAUCUACUAAAACAAGGCAAAAUGCCGUGUUUAUCUCGUCAACUUGUUGGCGAGAUUUUU
DNA 1: TGGTGAGCAAGGGCGAGGAGCTGTTCACCGGGGT
DNA 2: ACCCCGGTGAACAGCTCCTCGCCCTTGCTCACCA
  binding result: binds
